Assay results from the supplement of paper PMC7877785.
± gives the uncertainty stated by the source.

Assay: self-splicing fitness, log relative to wild type (ln ratio); higher = more splicing; Tetrahymena group I intron in knt gene, E. coli kanamycin selection, DiMSum; sequences stand for … in CUCUCU…GGAGGGAAAAGUUAUCAGGCAUGCACCUGGUAGCUAGUCUUUAAACCAAUAGAUUGCAUCGGUUUAAAAGGCAAGACCGUCAAAUUGCGGGAAAGGGGUCAACAGCCGUUCAGUACCAAGUCUCAGGGGAAACUUUGAGAUGGCCUUGCAAAGGGUAUGGUAAUAAGCUGACGGACAUGGUCCUAACCACGCAGCCAAGUCCUAAGUCAACAGAUCUUCUGUUGAUAUGGAUGCAGUUCACAGACUAAAUGUCGGUCGGGGAAGAUGUAUUCUUCUCAUAAGAUAUAGUCGGACCUCUCCUUAAUGGGAGCUAGCGGAUGAAGUGAUGCAACACUGGAGCCGCUGGGAACUAAUUUGUAUGCGAAAGUAUAUUGAUUAGUUUUGGAGUACUCGUGGUCG
Procedure, shortened: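 A randomised library covering all eight P1ex-region intron nucleotides was built with the intron in the knt kanamycin-resistance gene on pET-22b(+) and held in E. coli BL21(DE3). Cells were grown overnight at 37°C or 30°C on LB agar, with or without 25 μg/mL kanamycin, plus 100 μg/mL carbenicillin, 50 μM IPTG and 0.2% rhamnose, and pooled colonies were amplicon-sequenced on an Illumina HiSeq 2500. DiMSum fitness is the error-weighted combination of wild-type-normalised replicate fold changes, kanamycin versus none.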

Sequence | self-splicing fitness (ln) (30 °C) | self-splicing fitness (ln) (37 °C)
GUACAGCAAUAUUACGCAAU | -2.58 ± 0.21 | -1.87 ± 0.27
CUGGAGCAAUAUUACGUUCG | -4.29 ± 0.3 | -1.77 ± 0.19
UCCAAGCAAUAUUACGGGGA | -2.58 ± 0.15 | -1.27 ± 0.1
ACCGAGCAAUAUUACGAAGU | -1.93 ± 0.16 | -1.68 ± 0.22
UGCCAGCAAUAUUACGAUCA | -0.629 ± 0.099 | 0.465 ± 0.13
ACGCAGCAAUAUUACGCCGU | -3.33 ± 0.2 | -2.74 ± 0.27
AGCAAGCAAUAUUACGACCU | 0.278 ± 0.082 | 0.39 ± 0.11
CGCCAGCAAUAUUACGCCGU | -2.59 ± 0.15 | -1.71 ± 0.17
AACAAGCAAUAUUACGCGCC | -0.296 ± 0.15 | -0.317 ± 0.18
UACCAGCAAUAUUACGAAUC | -2.37 ± 0.2 | -1.05 ± 0.23
GGAUAGCAAUAUUACGAACA | -1.95 ± 0.19 | 0.22 ± 0.15
GUGCAGCAAUAUUACGCGUA | -1.62 ± 0.13 | -0.278 ± 0.1
AGAUAGCAAUAUUACGCGAG | -1.22 ± 0.1 | -1.03 ± 0.1
AUUCAGCAAUAUUACGGCGC | -0.389 ± 0.099 | -0.346 ± 0.13
GCAUAGCAAUAUUACGAUGA | -0.554 ± 0.079 | 0.0691 ± 0.07
UGCGAGCAAUAUUACGCGUG | -4.3 ± 0.42 | -1.12 ± 0.25
ACAAAGCAAUAUUACGGUGC | -2.89 ± 0.12 | -2.32 ± 0.12
GGGAAGCAAUAUUACGAGUG | -3.06 ± 0.12 | -1.81 ± 0.11
AGACAGCAAUAUUACGGUCA | -0.457 ± 0.063 | -0.0714 ± 0.074
ACGAAGCAAUAUUACGCGAA | -2.07 ± 0.1 | -0.608 ± 0.097
AGACAGCAAUAUUACGAGUA | -3.42 ± 0.21 | -1.47 ± 0.15
CGCCAGCAAUAUUACGGCUU | -0.48 ± 0.07 | -0.347 ± 0.08
CCUUAGCAAUAUUACGUUGA | -3.24 ± 0.21 | -3.02 ± 0.24
UCACAGCAAUAUUACGGAGA | -1.48 ± 0.1 | -0.898 ± 0.11
AUGGAGCAAUAUUACGCUUC |  | -1.28 ± 0.32
CGGAAGCAAUAUUACGCUGA |  | -1.21 ± 0.26

Sequence | self-splicing fitness (ln) (30 °C) | self-splicing fitness (ln) (37 °C)
UCAGAGCAAUAUUACGACGA | -0.0796 ± 0.1 | -0.26 ± 0.11
UGCCAGCAAUAUUACGACCU | -2.35 ± 0.19 | -1.34 ± 0.17
GUUUAGCAAUAUUACGUAGG | -2.77 ± 0.13 | -0.822 ± 0.14
CGGGAGCAAUAUUACGUGCU | -3.7 ± 0.21 | -2.87 ± 0.22
GUUUAGCAAUAUUACGAUAC | -1.44 ± 0.18 | -0.147 ± 0.28
CCGUAGCAAUAUUACGAUAA | -4.17 ± 0.39 | -1.99 ± 0.28
CGAGAGCAAUAUUACGGUCG | -1.42 ± 0.34 | -2.28 ± 0.24
UGGCAGCAAUAUUACGGACC | -2.02 ± 0.33 | -0.716 ± 0.24
AUACAGCAAUAUUACGACCC | -1.1 ± 0.21 | -0.179 ± 0.17
GCCCAGCAAUAUUACGACGU | 0.175 ± 0.053 | 0.441 ± 0.067
GCGAAGCAAUAUUACGCCCC | -2.37 ± 0.46 | 
AUUCAGCAAUAUUACGUCUC | -1.97 ± 0.14 | -0.374 ± 0.13
UAGAAGCAAUAUUACGCCAA | -1.44 ± 0.29 | -1.39 ± 0.28
UAGCAGCAAUAUUACGACCA | -0.457 ± 0.12 | 0.838 ± 0.17
UUGAAGCAAUAUUACGUCCU | -0.231 ± 0.18 | -0.346 ± 0.13
CCACAGCAAUAUUACGCCGU | -2.9 ± 0.24 | -1.87 ± 0.24
UGACAGCAAUAUUACGCUAA | -1.22 ± 0.086 | -0.325 ± 0.093
GUGAAGCAAUAUUACGGACA | 0.209 ± 0.092 | -0.366 ± 0.1
UUUGAGCAAUAUUACGGAUA | -3.12 ± 0.43 | -2.36 ± 0.45
UCCUAGCAAUAUUACGUGCU | -3.5 ± 0.17 | -1.8 ± 0.2
UAAAAGCAAUAUUACGCAAU | -3.58 ± 0.17 | -1.6 ± 0.13
CAAAAGCAAUAUUACGGCCU | -1.44 ± 0.14 | -1.25 ± 0.12
AAACAGCAAUAUUACGAAGU | -3.41 ± 0.2 | -2.21 ± 0.17
ACACAGCAAUAUUACGUCUU | -1.17 ± 0.046 | 0.012 ± 0.058
GGGAAGCAAUAUUACGCUAA | -1.84 ± 0.2 | -0.363 ± 0.18
UGGUAGCAAUAUUACGAUGA | -0.831 ± 0.13 | -0.597 ± 0.19

Sequence | self-splicing fitness (ln) (30 °C) | self-splicing fitness (ln) (37 °C)
GCUUAGCAAUAUUACGGCAU | -1.79 ± 0.17 | -1.61 ± 0.2
AUUUAGCAAUAUUACGCACC | -1.01 ± 0.18 | -0.21 ± 0.2
CUGCAGCAAUAUUACGGACG | -0.355 ± 0.14 | 0.179 ± 0.15
CCCGAGCAAUAUUACGGUAG | -3.16 ± 0.18 | -2.35 ± 0.17
AGUUAGCAAUAUUACGCGAG | -2.52 ± 0.22 | -1.52 ± 0.21
AGAGAGCAAUAUUACGUGAG | -3.12 ± 0.17 | -2.9 ± 0.26
CUGCAGCAAUAUUACGACUU | -2.66 ± 0.14 | -2.25 ± 0.17
UGCGAGCAAUAUUACGUAAA | -2.8 ± 0.1 | -1.77 ± 0.18
GGUUAGCAAUAUUACGCCUC | -0.314 ± 0.17 | -1.4 ± 0.2
GCAGAGCAAUAUUACGAGUG | -4.02 ± 0.48 | -2.25 ± 0.26
UGGUAGCAAUAUUACGAUCG | 0.32 ± 0.085 | 0.623 ± 0.11
UUUUAGCAAUAUUACGCAGG | -1.33 ± 0.12 | -1.03 ± 0.16
GCACAGCAAUAUUACGGGGA | -2.29 ± 0.11 | -1.5 ± 0.1
CAAUAGCAAUAUUACGUCAU | -3.6 ± 0.14 | -2.88 ± 0.17
CGUGAGCAAUAUUACGCACC | -1.07 ± 0.23 | 
AUCAAGCAAUAUUACGCAAC | -2.61 ± 0.14 | -2.37 ± 0.22
UGACAGCAAUAUUACGGAGC | -4.35 ± 0.39 | -2.91 ± 0.19
UCCAAGCAAUAUUACGAGGC | -3.67 ± 0.23 | -2.26 ± 0.22
GGGGAGCAAUAUUACGGGAG |  | -1.53 ± 0.39
GGAGAGCAAUAUUACGACUC | -1.21 ± 0.23 | -0.0732 ± 0.34
UCCUAGCAAUAUUACGGUUA |  | -2.54 ± 0.31
CCGAAGCAAUAUUACGAUGA | -3.16 ± 0.26 | -2.24 ± 0.19
UCCGAGCAAUAUUACGCGGG | -3.02 ± 0.28 | -2.78 ± 0.38
CUCAAGCAAUAUUACGGGGA | -2.01 ± 0.15 | -1.33 ± 0.17
GACCAGCAAUAUUACGCCAA | -2.99 ± 0.22 | -1.45 ± 0.15
